Experimental data: publication PMC9256704

Biological target: PKM2 (M2 isoform of pyruvate kinase), endogenous (human (endogenous in A549 and in patients' lung cancer tissues)) (UniProt P14618)
Assay: native gel or EMSA; native PAGE of cytoplasm and nucleus of cells; TRIB2 overexpression or siRNA-TRIB2

Chain of PKM2 (M2 isoform of pyruvate kinase), endogenous, P14618 1-531 (natural protein; other documents disagree on this pair) (P14618 whole entry, canonical isoform): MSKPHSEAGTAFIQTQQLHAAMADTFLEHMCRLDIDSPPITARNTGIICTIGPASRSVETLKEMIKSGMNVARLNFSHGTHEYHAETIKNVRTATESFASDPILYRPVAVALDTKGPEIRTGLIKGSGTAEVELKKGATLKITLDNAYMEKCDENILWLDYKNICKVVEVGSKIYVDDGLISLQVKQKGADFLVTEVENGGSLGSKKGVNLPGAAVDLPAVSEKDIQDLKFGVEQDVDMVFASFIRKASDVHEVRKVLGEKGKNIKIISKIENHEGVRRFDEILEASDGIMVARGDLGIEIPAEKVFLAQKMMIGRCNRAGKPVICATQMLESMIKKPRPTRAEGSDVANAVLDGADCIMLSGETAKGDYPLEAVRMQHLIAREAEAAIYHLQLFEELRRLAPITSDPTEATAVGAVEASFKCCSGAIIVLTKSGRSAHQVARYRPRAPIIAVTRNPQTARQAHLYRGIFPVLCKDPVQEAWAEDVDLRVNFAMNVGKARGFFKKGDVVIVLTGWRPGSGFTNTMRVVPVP

stoichiometry N: 2
Substance: PKM2 (M2 isoform of pyruvate kinase), endogenous, P14618 1-531 (natural protein; other documents disagree on this pair)
